We go through two molecules from US20150183864A1 (KOREA ADVANCED INSTITUTE OF SCIENCE AND TECHNOLOGY KAIST, published 2015).

The Kd is the free concentration of one partner at which half of the binding sites on the other are occupied at equilibrium, for simple one-to-one binding. A higher Kd goes with a looser complex.

Experiment [1] deals with VEGF-A165 (produced from CHO cell) (UniProt P15692). Put plainly: SPR, BIAcore 3000, VEGF-A immobilized on CM5 chip. (In general: In SPR one partner is held on a chip, and binding of the other changes the refractive index at the surface.)
Experiment [2] has as its target T1, TNFR2-Fc (also known as Etarnercept, U.S. Pat. No. 5,447,851) (human, UniProt P20333 23-257).
T1 construct: range 23-257; The ELISAs and photograph assays name TNFR2-Fc; the SPR and MTT assays name ENBREL®; also called TNFR2-Fc (1-257); ENBREL®; not shown: Fc of human IgG
T1 sequence (looked up): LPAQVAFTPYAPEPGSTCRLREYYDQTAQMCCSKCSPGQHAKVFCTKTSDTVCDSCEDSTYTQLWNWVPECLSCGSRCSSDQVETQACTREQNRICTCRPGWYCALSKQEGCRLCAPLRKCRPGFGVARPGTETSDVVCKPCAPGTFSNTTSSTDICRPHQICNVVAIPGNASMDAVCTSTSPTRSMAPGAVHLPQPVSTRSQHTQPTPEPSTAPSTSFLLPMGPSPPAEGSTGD
The experiment is described as follows: ELISA, VEGF-A coated on the plate, Fc fusion protein 0.01-10 nM, detection with anti-human Fc-HRP, OD 415. As for the experimental part: After washing the plate 3 times with each 400 μl of PBS, a blocking was performed with the blocking solution (1% BSA in 100 μl PBS) at 37° C. for 2 hour. […] After washing the plate 3 times with each 400 μl of PBS, 50 μl of 3,3′,5,5′-tetramethylbenzidine (TMB) solution (Sigma-Aldrich T0440) was added into the plate, and were incubated at room temperature for 10 min.
For orientation: An ELISA detects its analyte on a solid surface through an enzyme-linked reagent.

With VEGF-Trap (Fc fusion), the Kd in experiment [1] turned out to be 1.35 pM.

B1: VEGF-A165 (produced from CHO cell) (ligand, UniProt P15692-4 27-191, looked up)
chain: APMAEGGGQNHHEVVKFMDVYQRSYCHPIETLVDIFQEYPDEIEYIFKPSCVPLMRCGGCCNDEGLECVPTEESNITMQIMRIKPHQGQHIGEMSFLQHNKCECRPKKDRARQENPCGPCSERRKHLFVQDPQTCKCSCKNTDSRCKARQLELNERTCRCDKPRR
Take B1: the binding result in experiment [2] is on record as “no binding (tested: 10 nM)”.
